Biological target: PpsR2-mVenus-CAAX (membrane-bound) (Rhodopseudomonas palustris)
Experiment: translocation assay

- decrease of mCherry fluorescence in cytoplasm after 3 min of 740 nm illumination: 25%
Substance: BphP1-mCherry, transiently expressed in HeLa cells (natural protein)

From paper PMC4927390
